Results published in patent US11628159B2, “Cell-protective compounds and their use” (ETH ZURICH, priority 2017, dated 2023).

Target: T1, GRK2 (Homo sapiens, UniProt P25098)
T1 construct: fused on or other part: hexahistidine tag
T1 sequence (P25098 1-669 limits assumed): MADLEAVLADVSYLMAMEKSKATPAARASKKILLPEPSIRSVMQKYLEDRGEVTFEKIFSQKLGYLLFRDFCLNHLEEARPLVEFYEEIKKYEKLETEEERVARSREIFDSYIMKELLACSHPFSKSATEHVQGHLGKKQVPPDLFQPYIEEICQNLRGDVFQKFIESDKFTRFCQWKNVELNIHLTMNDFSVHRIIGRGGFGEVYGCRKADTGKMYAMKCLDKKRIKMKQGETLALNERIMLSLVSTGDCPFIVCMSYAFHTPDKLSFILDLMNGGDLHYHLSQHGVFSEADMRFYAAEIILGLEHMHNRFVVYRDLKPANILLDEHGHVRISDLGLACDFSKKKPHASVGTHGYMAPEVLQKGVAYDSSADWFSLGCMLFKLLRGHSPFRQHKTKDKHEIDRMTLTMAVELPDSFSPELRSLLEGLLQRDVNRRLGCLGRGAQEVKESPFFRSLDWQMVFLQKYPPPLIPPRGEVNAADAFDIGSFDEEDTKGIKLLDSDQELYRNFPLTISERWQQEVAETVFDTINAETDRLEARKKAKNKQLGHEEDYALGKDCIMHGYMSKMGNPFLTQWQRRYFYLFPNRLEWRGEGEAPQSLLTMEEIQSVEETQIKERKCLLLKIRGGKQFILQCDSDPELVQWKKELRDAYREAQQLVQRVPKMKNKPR
Test: In vitro phosphorylation assay: GRK2-mediated phosphorylation of phosducin
Type: biochemical
Details: n=6-7; read-out: IC50, inhibition of GRK2-induced phosducin phosphorylation
Source text: Recombinant human GRK2 protein and GRK2-S670A protein was expressed in and purified from Spodoptera frugiperda (Sf9) cells by the baculoviral expression system. The cDNAs encoding hexahistidine-tagged human GRK2 (ADRBK1) GRK2-S670A were subcloned into the pFastBac1 expression plasmid (INVITROGEN™, THERMO FISHER SCIENTIFIC®, Waltham, Mass., USA) using the Sal I/Hind III restriction sites, recombinant baculovirus was generated by the Bac-To-Bac Baculovirus expression system (THERMO FISHER SCIENTIFIC®, Waltham, Mass., USA). Sf9 cells were infected with recombinant baculoviruses at an MOI of 2-3, 48 h after infection cells were harvested by centrifugation, lysed with lysis buffer (300 mM NaCl, 50 mM HEPES, pH 7.5 supplemented with 1% NP40, 1 mM PMSF and protease inhibitor cocktail) and applied to Ni-NTA chromatography. After overnight incubation at 4° C., unbound proteins were removed by washing with lysis buffer (20× column volumes) followed by 1× column volume of 30 mM imidazole-containing lysis buffer. Bound GRK2 was eluted by 300 mM imidazole in lysis buffer, desalted by PD10 column chromatograpy, supplemented with 20% glycerol and stored at −80° C. for further use. […]

IC50: 950 nM
B1: RKIP: raf kinase inhibitor protein, a dual-specific GRK2 and Raf kinase inhibitor (protein, UniProt P30086 2-187, looked up)
Phosphatidylethanolamine-bindi …: PVDLSKWSGPLSLQEVDEQPQHPLHVTYAGAAVDELGKVLTPTQVKNRPTSISWDGLDSGKLYTLVLTDPDAPSRKDPKYREWHHFLVVNMKGNDISSGTVLSDYVGSGPPKGTGLHRYVWLVYEQDRPLKCDEPILSNRSGDHRGKFKVASFRKKYELRAPVAGTCYQAEWDDYVPKLYEQLSGK
